Reference: PMC3120127

Columns and labels:
Assay in all cases: split reporter
[1] = target: N-FLUC negative control (firefly)
[2] = target: N-FLUC-PFE1350c (amino acids 9-135) (P. falciparum)
[3] = target: N-FLUC-PfMyb2 fragment #13 (P. falciparum)

fold luciferase signal over N-FLUC-PFE1350c plus the C-FLUC negative control [2] [fold] | fold luciferase signal over the N-FLUC fusion plus the C-FLUC negative control [3] [fold] | Substance | fold luciferase signal over N-FLUC-PFE1350c plus the C-FLUC negative control [1] [fold] | fold luciferase signal over the N-FLUC fusion plus the C-FLUC negative control [2] [fold]
– | – | PFC0255c-C-FLUC (amino acids 4-137) (domain or fragment) | < 2.3 | > 600
< 2.3 | – | PFL1705w-C-FLUC (amino acids 95-213) (domain or fragment) | – | –
< 2.3 | 36 | PFC0365w-C-FLUC (amino acids 45-205) (domain or fragment) | – | –
